# Residue numbers refer to the chain shown, from its start.
# B1: B4A_03 (other)
# chain: CPPCPAPELLGGPSVFLFPPKPKDTLMISRTPEVTCVVVDVSHEDPEVKFNWYVDGVEVHNAKTKPWEEQYNSTYRVVSVLPVLHQDWLNGKEYKCKVSNKALPVPIEKTISKAKGQPREPQVYTLPPSRDELTKNQVSLTCLVKGFYPSDIAVEWESNGQPENNYKTTPPVLDSDGSFFLYSKLTVDKSRWQQGNVFSCSVMHEALHSHYTQKSLSLSPGK
# notes: EU numbering
# B2: B5A_16 (other)
# chain: B1 chain with S14A, W67R, S73G, P82T, N90D, V105A, Q122R, S209Y, S215R
# notes: EU numbering
# B3: B5A_17 (other)
# chain: B1 chain with W67R, P82T, N90D, V105A, Q137R, S209Y
# notes: EU numbering
# B4: B5A_25 (other)
# chain: B1 chain with F18L, W67R, P82T, N90D, V105A, T186A
# notes: EU numbering
# B5: B6A_20 (other)
# chain: B1 chain with W67R, P82T, K95T, V105A, S209Y, K214R, K222E
# notes: EU numbering
# B6: B6A_31 (other)
# chain: B1 chain with W67R, P82T, V105A, S150G, M203L, H208P, S209N
# notes: EU numbering
# B7: B6A_41 (other)
# chain: B1 chain with W67R, P82T, V105A, S209Y, Q213R, K222E
# notes: EU numbering
# B8: L3A_39 (other)
# chain: B1 chain with W67R, P82T, V105A, S150G, P170S
# notes: EU numbering
# B9: L4A_28 (other)
# chain: B1 chain with W67R, P82T, V105A, M203L, Q213R, P220S
# notes: EU numbering
# B10: L6B_31 (other)
# chain: B1 chain with P5T, W67R, V80A, P82A, V105A, A153V, L173P
# notes: EU numbering
# B11: S3A_06 (other)
# chain: B1 chain with P5T, A6T, W67R, P82T, V105A, A153V, S209N
# notes: EU numbering
# B12: S4A_05 (other)
# chain: B1 chain with W67R, P82T, V105A, A153V, D176A, S209Y
# notes: EU numbering
# B13: S4A_07 (other)
# chain: B1 chain with W67R, V105A, N164T, S209Y
# notes: EU numbering
# B14: S4A_14 (other)
# chain: B1 chain with N51S, W67R, P82T, V105A, A153V
# notes: EU numbering
# B15: S4A_17 (other)
# chain: B1 chain with W67R, V77A, P82T, V105A, N164T
# notes: EU numbering
# B16: S4A_24 (other)
# chain: B1 chain with V39E, W67R, R76C, P82T, V105A, A153V, E157G, S209N
# notes: EU numbering
# B17: S4A_25 (other)
# chain: B1 chain with D40G, W67R, P82T, V105A, S183T, S209Y, S219F
# notes: EU numbering
# B18: S4A_36 (other)
# chain: B1 chain with P5Q, V39A, W67R, P82T, V105A, P127S, A153V, S209N
# notes: EU numbering
# B19: C3A_13 (other)
# chain: B1 chain with C1G, W67R, P82T, N90D, S209Y
# notes: EU numbering
# B20: C5A_09 (other)
# chain: B1 chain with F16L, V39E, W67R, V105A, A153V
# notes: EU numbering
# B21: C5A_39 (other)
# chain: B1 chain with K65E, W67R, P82T, N90D, V105A, Q117R, E157V, S209Y
# notes: EU numbering
# B22: C5A_65 (other)
# chain: B1 chain with P5T, W67R, P82T, N90D, Q161K, S209Y
# notes: EU numbering
# B23: C6A_12 (other)
# chain: B1 chain with P5T, W67R, P82T, N90D, V105A, Q137E, S209Y
# notes: EU numbering
# B24: C6A_48 (other)
# chain: B1 chain with P5T, V39E, W67R, P82T, V105A, A153V
# notes: EU numbering
# B25: C6A_85 (other)
# chain: B1 chain with W67R, V80A, P82T, N90D, N164K, S209Y
# notes: EU numbering
# B26: C8A_15 (other)
# chain: B1 chain with W67R, P82T, N90D, A102V, V172M, S209Y
# notes: EU numbering
# B27: T4A_37 (other)
# chain: B1 chain with P5S, V39E, W67R, P82T, V105A, P127S, A153V
# notes: EU numbering
# B28: T4A_42 (other)
# chain: B1 chain with C1G, W67R, P82T, N90D, V105A, Q137R, S209Y
# notes: EU numbering
# B29: T4A_48 (other)
# chain: B1 chain with W67R, P82T, V83I, N90D, E157V, S209Y
# notes: EU numbering
# B30: T5A_25 (other)
# chain: B1 chain with C1G, V39E, W67R, P82T, V105A, Q122R, K145R, A153V
# notes: EU numbering
# B31: T5A_45 (other)
# chain: B1 chain with A6T, F16L, V39E, W67R, P82T, V105A, A153T, V172M
# notes: EU numbering
# B32: T5A_55 (other)
# chain: B1 chain with P5L, F16L, F18L, V39E, W67R, V105A, A153V, S209N
# notes: EU numbering
# B33: T5A_57 (other)
# chain: B1 chain with F16L, W67R, P82T, N90D, K167R, S209Y
# notes: EU numbering
# B34: T5A_87 (other)
# chain: B1 chain with W67R, P82T, N90D, Q137R, S209Y
# notes: EU numbering
# B35: T5A_93 (other)
# chain: B1 chain with W67R, V80A, P82T, N90D, P170A, S209Y
# notes: EU numbering
# B36: T6A_75 (other)
# chain: B1 chain with P5T, W67R, P82T, N90D, V105A, Q137R, S201T, S209Y
# notes: EU numbering
# B37: T6A_85 (other)
# chain: B1 chain with T25A, W67R, P82T, N90D, N100S, S209Y
# notes: EU numbering
# B38: T7A_92 (other)
# chain: B1 chain with V39E, W67R, P82T, V105A, P171L, S190N
# notes: EU numbering
# B39: C6A_78B (other)
# chain: B1 chain with P3L, T31N, W67R, P82T, V105A, A153V, S209Y
# notes: EU numbering
# B40: C6A_78C (other)
# chain: B1 chain with P5S, T31N, W67R, P82T, V105A, A153V, S209Y
# notes: EU numbering
# B41: C6A_78D (other)
# chain: B1 chain with P3R, T31N, W67R, P82T, V105A, A153V, S209Y
# notes: EU numbering
# B42: C6A_78F (other)
# chain: B1 chain with P3R, P5S, T31N, W67R, P82T, V105A, A153V, S209Y
# notes: EU numbering
# B43: T5A_74B (other)
# chain: B1 chain with P5S, W67R, P82T, N90D, N136D, A153V, S209Y
# notes: EU numbering
# B44: T5A_74C (other)
# chain: B1 chain with P3L, W67R, P82T, N90D, N136D, A153V, S209Y
# notes: EU numbering
# B45: T5A_74D (other)
# chain: B1 chain with P3R, W67R, P82T, N90D, N136D, A153V, S209Y
# notes: EU numbering
# B46: T5A_74F (other)
# chain: B1 chain with P3R, P5S, W67R, P82T, N90D, N136D, A153V, S209Y
# notes: EU numbering
# Target: T1, FcRn-p3 fusion protein (human, UniProt P55899 24-297; P61769 21-119)
# T1 construct: baculovirus expressed; coated on ELISA wells; not shown: amino terminal part of bacteriophage p3 protein and CVDE protein
# Assay: phage ELISA pH6
row,Ratio/Fc-WT,Binder
1,3.7 fold,B1
2,5.6 fold,B2
3,4.6 fold,B3
4,3.6 fold,B4
5,3.7 fold,B5
6,5 fold,B6
7,4.3 fold,B7
8,3.2 fold,B8
9,5.2 fold,B9
10,6.3 fold,B10
11,3.6 fold,B11
12,3.7 fold,B12
13,6.6 fold,B13
14,5.9 fold,B14
15,3.8 fold,B15
16,5.4 fold,B16
17,4.2 fold,B17
18,4.5 fold,B18

# Target: T1, FcRn-p3 fusion protein
# Assay: phage ELISA pH6
# Remark: another data set of the same source
row,Ratio/Fc-H,Binder
1,5.6 fold,B19
2,4.8 fold,B20
3,5 fold,B21
4,4.2 fold,B22
5,4.6 fold,B23
6,4.5 fold,B24
7,7.4 fold,B25
8,7.4 fold,B26
9,4 fold,B27
10,4.6 fold,B28
11,4.5 fold,B29
12,4.6 fold,B30
13,4.5 fold,B31
14,5.6 fold,B32
15,4.9 fold,B33
16,7.8 fold,B34
17,8 fold,B35
18,5.7 fold,B36
19,5.1 fold,B37
20,6.7 fold,B38

# Target: T1, FcRn-p3 fusion protein
# Assay: phage ELISA pH6
# Remark: another data set of the same source
row,Ratio/Fc-H,Binder
1,5.6 fold,B19
2,4.8 fold,B20
3,5 fold,B21
4,4.2 fold,B22
5,4.6 fold,B23
6,4.5 fold,B24
7,14.4 fold,B39
8,9.2 fold,B40
9,28.3 fold,B41
10,9.4 fold,B42
11,7.4 fold,B25
12,7.4 fold,B26
13,4 fold,B27
14,4.6 fold,B28
15,4.5 fold,B29
16,4.6 fold,B30
17,4.5 fold,B31
18,5.6 fold,B32
19,4.9 fold,B33
20,5.9 fold,B43
21,7.5 fold,B44
22,26 fold,B45
23,16.8 fold,B46
24,7.8 fold,B34
25,8 fold,B35
26,5.7 fold,B36
27,5.1 fold,B37
28,6.7 fold,B38

# Target: T1, FcRn-p3 fusion protein
# Assay: phage ELISA pH6 (est.)
row,Ratio/FWT,Binder
1,17.9 fold,B19
2,15.2 fold,B20
3,15.9 fold,B21
4,13.5 fold,B22
5,14.9 fold,B23
6,14.4 fold,B24
7,23.8 fold,B25
8,23.7 fold,B26
9,12.8 fold,B27
10,14.7 fold,B28
11,14.5 fold,B29
12,14.7 fold,B30
13,14.3 fold,B31
14,17.9 fold,B32
15,15.8 fold,B33
16,25 fold,B34
17,25.7 fold,B35
18,18.3 fold,B36
19,16.3 fold,B37
20,21.4 fold,B38

# Target: T1, FcRn-p3 fusion protein
# Assay: phage ELISA pH6 (est.)
# Remark: another data set of the same source
row,Ratio/Fc-WT,Binder
1,17.9 fold,B19
2,15.2 fold,B20
3,15.9 fold,B21
4,13.5 fold,B22
5,14.9 fold,B23
6,14.4 fold,B24
7,45.9 fold,B39
8,29.4 fold,B40
9,90.5 fold,B41
10,30.1 fold,B42
11,23.8 fold,B25
12,23.7 fold,B26
13,12.8 fold,B27
14,14.7 fold,B28
15,14.5 fold,B29
16,14.7 fold,B30
17,14.3 fold,B31
18,17.9 fold,B32
19,15.8 fold,B33
20,18.8 fold,B43
21,24 fold,B44
22,83.1 fold,B45
23,53.8 fold,B46
24,25 fold,B34
25,25.7 fold,B35
26,18.3 fold,B36
27,16.3 fold,B37
28,21.4 fold,B38

# From patent publication USRE46585 (LABORATOIRE FRANCAIS DU FRACTIONNEMENT ET DES …, dated 2017)
